What all share (test): SPR; Biacore T200; about 300 to 5,000 RU of Ad virions immobilised on a CM5 chip, coagulation factors flowed over at four concentrations, 50 uL/min; running buffer 10 mM HEPES, 150 mM NaCl, 1 mM CaCl2, 0.5 mM MgCl2, 0.1% BSA, 0.05% polysorbate 20, pH 7.4; regeneration with 3 mM EDTA; global fit to a 1:1 kinetic interaction model, double referencing
Holding throughout (details): both partners purified
(In SPR one partner is held on a chip, and binding of the other changes the refractive index at the surface.)

For experiment [1], the target named is T1, human prothrombin (coagulation factor II) (human, UniProt P00734 44-622, gamma-carboxylated glutamate residues in the Gla domain).
T1 construct: prothrombin (FII), human, plasma-derived; also called human FII; FII; source: bought: Haematologic Technologies, Inc. (HCP-0010), plasma-derived

Experiment [2] has as its target T1, human prothrombin (coagulation factor …). The source holds these as a separate data set.
Experiment [3] addresses T2, bovine coagulation factor X (bovine, UniProt P00743 41-492, gamma-carboxylated glutamate residues in the Gla domain).
T2 construct: coagulation factor X, bovine, plasma-derived; Pretreated with 125 uM GGACK (EGRCK); written here as one entry; also called bovine FX; source: bought: Haematologic Technologies, Inc. (BCX-1050), plasma-derived

Experiment [4] concerns the target T3, mouse coagulation factor X (mouse, UniProt O88947 41-481, gamma-carboxylated glutamate residues in the Gla domain).
T3 construct: coagulation factor X, mouse, plasma-derived; Pretreated with 125 uM GGACK (EGRCK); written here as one entry; also called mouse FX; source: bought: Haematologic Technologies, Inc. (MCX-5050), plasma-derived

Experiment [5] has as its target T4, bovine prothrombin (coagulation factor II) (bovine, UniProt P00735 44-625, gamma-carboxylated glutamate residues in the Gla domain).
T4 construct: prothrombin (FII), bovine, plasma-derived; also called bovine FII; source: bought: Haematologic Technologies, Inc. (BCP-1010), plasma-derived

Experiment [6] concerns the target T5, human coagulation factor X (human, UniProt P00742 41-488, gamma-carboxylated glutamate residues in the Gla domain).
T5 construct: coagulation factor X, human, plasma-derived; written here as one entry; also called human FX; FX; source: bought: Haematologic Technologies, Inc. (HCX-0050), plasma-derived

In experiment [7] the target is T6, mouse prothrombin (coagulation factor II) (mouse, UniProt P19221 44-618, gamma-carboxylated glutamate residues in the Gla domain).
T6 construct: prothrombin (FII), mouse, plasma-derived; also called mouse FII

These results are taken from article PMC9536601, “Binding of adenovirus species C hexon to prothrombin and the influence of hexon on vector properties in vitro and in vivo” (PLoS Pathogens, 2022).

Broadly, the Kd is the concentration at which binding is half-saturated. Higher therefore signals weaker binding. One may read the koff as a measure of how fast the partners let go of each other. A word on the kon: it is the rate constant with which the complex forms.

T4 sequence (P00735 44-625): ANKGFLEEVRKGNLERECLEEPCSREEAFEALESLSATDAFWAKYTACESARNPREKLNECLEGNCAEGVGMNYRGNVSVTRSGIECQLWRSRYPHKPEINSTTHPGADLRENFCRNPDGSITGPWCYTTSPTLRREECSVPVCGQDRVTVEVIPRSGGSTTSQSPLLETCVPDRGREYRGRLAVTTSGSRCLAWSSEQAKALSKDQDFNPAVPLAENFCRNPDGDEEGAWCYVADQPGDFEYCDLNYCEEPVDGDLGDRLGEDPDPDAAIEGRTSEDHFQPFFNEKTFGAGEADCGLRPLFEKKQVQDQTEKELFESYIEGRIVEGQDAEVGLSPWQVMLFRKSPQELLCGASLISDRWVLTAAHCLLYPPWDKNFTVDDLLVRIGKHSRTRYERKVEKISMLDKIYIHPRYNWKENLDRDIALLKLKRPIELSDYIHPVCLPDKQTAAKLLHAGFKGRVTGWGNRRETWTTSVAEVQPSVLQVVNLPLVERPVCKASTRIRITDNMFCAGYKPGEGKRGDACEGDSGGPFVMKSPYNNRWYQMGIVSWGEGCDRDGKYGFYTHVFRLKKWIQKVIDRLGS
T6 sequence (P19221 44-618): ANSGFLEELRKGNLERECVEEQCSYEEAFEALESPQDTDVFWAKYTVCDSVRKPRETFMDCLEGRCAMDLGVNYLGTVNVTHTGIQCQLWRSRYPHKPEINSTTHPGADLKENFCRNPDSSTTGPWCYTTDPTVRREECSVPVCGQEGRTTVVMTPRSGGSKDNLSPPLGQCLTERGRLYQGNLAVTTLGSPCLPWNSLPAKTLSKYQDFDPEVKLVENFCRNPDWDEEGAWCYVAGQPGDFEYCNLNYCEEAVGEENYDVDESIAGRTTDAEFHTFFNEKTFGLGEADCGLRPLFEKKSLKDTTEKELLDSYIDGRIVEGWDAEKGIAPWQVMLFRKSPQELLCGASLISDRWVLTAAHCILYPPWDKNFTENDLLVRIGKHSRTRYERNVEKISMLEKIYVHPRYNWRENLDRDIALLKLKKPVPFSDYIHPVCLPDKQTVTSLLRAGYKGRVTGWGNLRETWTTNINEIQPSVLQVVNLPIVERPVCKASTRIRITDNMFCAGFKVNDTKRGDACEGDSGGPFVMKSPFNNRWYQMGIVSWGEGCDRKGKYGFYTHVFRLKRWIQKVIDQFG

B1: hexon of the E1/E3-deleted Ad5 vector Ad5.0 (wild-type Ad5 capsid, on virions) (natural protein, human adenovirus 5)
chain: ATPSMMPQWSYMHISGQDASEYLSPGLVQFARATETYFSLNNKFRNPTVAPTHDVTTDRSQRLTLRFIPVDREDTAYSYKARFTLAVGDNRVLDMASTYFDIRGVLDRGPTFKPYSGTAYNALAPKGAPNPCEWDEAATALEINLEEEDDDNEDEVDEQAEQQKTHVFGQAPYSGINITKEGIQIGVEGQTPKYADKTFQPEPQIGESQWYETEINHAAGRVLKKTTPMKPCYGSYAKPTNENGGQGILVKQQNGKLESQVEMQFFSTTEATAGNGDNLTPKVVLYSEDVDIETPDTHISYMPTIKEGNSRELMGQQSMPNRPNYIAFRDNFIGLMYYNSTGNMGVLAGQASQLNAVVDLQDRNTELSYQLLLDSIGDRTRYFSMWNQAVDSYDPDVRIIENHGTEDELPNYCFPLGGVINTETLTKVKPKTGQENGWEKDATEFSDKNEIRVGNNFAMEINLNANLWRNFLYSNIALYLPDKLKYSPSNVKISDNPNTYDYMNKRVVAPGLVDCYINLGARWSLDYMDNVNPFNHHRNAGLRYRSMLLGNGRYVPFHIQVPQKFFAIKNLLLLPGSYTYEWNFRKDVNMVLQSSLGNDLRVDGASIKFDSICLYATFFPMAHNTASTLEAMLRNDTNDQSFNDYLSAANMLYPIPANATNVPISIPSRNWAAFRGWAFTRLKTKETPSLGSGYDPYYTYSGSIPYLDGTFYLNHTFKKVAITFDSSVSWPGNDRLLTPNEFEIKRSVDGEGYNVAQCNMTKDWFLVQMLANYNIGYQGFYIPESYKDRMYSFFRNFQPMSRQVVDDTKYKDYQQVGILHQHNNSGFVGYLAPTMREGQAYPANFPYPLIGKTAVDSITQKKFLCDRTLWRIPFSSNFMSMGALTDLGQNLLYANSAHALDMTFEVDPMDEPTLLYVLFEVFDVVRVHRPHRGVIETVYLRTPFSAGNATT
notes: hexon of human adenovirus type 5, unchanged, as it stands in the capsid of the vector; Immobilised as whole vector virions; source: E1/E3-deleted Ad5 vector grown on 293 cells, virions purified by CsCl ultracentrifugation
For the molecule B1, in experiment [1], the affinity, expressed as Kd, was 35 nM; the koff turned out to be 0.00317 s⁻¹; the kon stood at 90500 M⁻¹ s⁻¹.

B2: hexon of wild-type human adenovirus type 6 (on virions) (natural protein)
chain: ATPSMMPQWSYMHISGQDASEYLSPGLVQFARATETYFSLNNKFRNPTVAPTHDVTTDRSQRLTLRFIPVDREDTAYSYKARFTLAVGDNRVLDMASTYFDIRGVLDRGPTFKPYSGTAYNALAPKGAPNSCEWEQNETAQVDAQELDEEENEANEAQAREQEQAKKTHVYAQAPLSGIKITKEGLQIGTADATVAGAGKEIFADKTFQPEPQVGESQWNEADATAAGGRVLKKTTPMKPCYGSYARPTNSNGGQGVMVEQNGKLESQVEMQFFSTSTNATNEVNNIQPTVVLYSEDVNMETPDTHLSYKPKMGDKNAKVMLGQQAMPNRPNYIAFRDNFIGLMYYNSTGNMGVLAGQASQLNAVVDLQDRNTELSYQLLLDSIGDRTRYFSMWNQAVDSYDPDVRIIENHGTEDELPNYCFPLGGIGITDTFQAVKTTAANGDQGNTTWQKDSTFAERNEIGVGNNFAMEINLNANLWRNFLYSNIALYLPDKLKYNPTNVEISDNPNTYDYMNKRVVAPGLVDCYINLGARWSLDYMDNVNPFNHHRNAGLRYRSMLLGNGRYVPFHIQVPQKFFAIKNLLLLPGSYTYEWNFRKDVNMVLQSSLGNDLRVDGASIKFDSICLYATFFPMAHNTASTLEAMLRNDTNDQSFNDYLSAANMLYPIPANATNVPISIPSRNWAAFRGWAFTRLKTKETPSLGSGYDPYYTYSGSIPYLDGTFYLNHTFKKVAITFDSSVSWPGNDRLLTPNEFEIKRSVDGEGYNVAQCNMTKDWFLVQMLANYNIGYQGFYIPESYKDRMYSFFRNFQPMSRQVVDDTKYKDYQQVGIIHQHNNSGFVGYLAPTMREGQAYPANVPYPLIGKTAVDSITQKKFLCDRTLWRIPFSSNFMSMGALTDLGQNLLYANSAHALDMTFEVDPMDEPTLLYVLFEVFDVVRVHRPHRGVIETVYLRTPFSAGNATT
As to B2, the Kd came to 2.7 nM in experiment [2]; 100 nM in experiment [3]; 0.42 nM in experiment [4]; 75 nM in experiment [5]; 28 nM in experiment [6]; 9.9 nM in experiment [7]. Also, the koff was 0.000182 s⁻¹ in experiment [2]; 0.0147 s⁻¹ in experiment [3]; 4.08e-05 s⁻¹ in experiment [4]; 0.00395 s⁻¹ in experiment [5]; 0.00326 s⁻¹ in experiment [6]; 0.000575 s⁻¹ in experiment [7]. In addition, the kon was determined as 67000 M⁻¹ s⁻¹ in experiment [2]; 144000 M⁻¹ s⁻¹ in experiment [3]; 96600 M⁻¹ s⁻¹ in experiment [4]; 53000 M⁻¹ s⁻¹ in experiment [5]; 116000 M⁻¹ s⁻¹ in experiment [6]; 58200 M⁻¹ s⁻¹ in experiment [7].
